From PMC6999842 (mAbs, 2020)

B1: IgG2a(K), murine anti-A33 antibody K in murine IgG2a format (antibody, V domains shown)
VH: EVKLVESGGGLVKPGGSLKLSCAASGFAFSTYDMSWVRQTPEKRLEWVATISSGGSYTYYLDSVKGRFTISRDSARNTLYLQMSSLRSEDTALYYCAPTTVVPFAYWGQGTLVTVSA
VL: DIVMTQSQKFMSTSVGDRVSITCKASQNVRTVVAWYQQKPGQSPKTLIYLASNRHTGVPDRFTGSGSGTDFTLTISNVQSEDLADYFCLQHWSYPLTFGSGTKLEVK
B2: FITC-labeled IgG2a(K) (antibody, V domains shown)
VH: EVKLVESGGGLVKPGGSLKLSCAASGFAFSTYDMSWVRQTPEKRLEWVATISSGGSYTYYLDSVKGRFTISRDSARNTLYLQMSSLRSEDTALYYCAPTTVVPFAYWGQGTLVTVSA
VL: DIVMTQSQKFMSTSVGDRVSITCKASQNVRTVVAWYQQKPGQSPKTLIYLASNRHTGVPDRFTGSGSGTDFTLTISNVQSEDLADYFCLQHWSYPLTFGSGTKLEVK
B3: FITC-labeled IgG2a(MG) (antibody, V domains shown)
VH: QVQLQQSGPELVKPGASVKISCKASGYTFSGSWMNWVKQRPGQGLEWIGRIYPGDGETNYNGKFKDKATLTADKSSTTAYMELSSLTSVDSAVYFCARIYGNNVYFDVWGAGTTVTVSS
VL: QIVLTQSPAIMSASPGERVTMTCSARSSISFMYWYQQKPGSSPRLLIYDTSNLASGVPVRFSGSGSGTSYSLTISRMEAEDAATYYCQQWSSYPLTFGSGTKLELK

How the values were obtained:
[1] = target: A33 in human colon and human colon adenocarcinoma tissue sections (Homo sapiens (Human)., UniProt Q99795); assay: immunostaining of cells or tissue
[2] = target: T1, human A33 transmembrane glycoprotein expressed on stably transfected murine colorectal carcinoma cells (Homo sapiens (Human)., UniProt Q99795); assay: flow cytometry on cells
[3] = target: T1, human A33 transmembrane glycoprotein …; assay: immunostaining of cells or tissue

T1 sequence (Q99795 22-319): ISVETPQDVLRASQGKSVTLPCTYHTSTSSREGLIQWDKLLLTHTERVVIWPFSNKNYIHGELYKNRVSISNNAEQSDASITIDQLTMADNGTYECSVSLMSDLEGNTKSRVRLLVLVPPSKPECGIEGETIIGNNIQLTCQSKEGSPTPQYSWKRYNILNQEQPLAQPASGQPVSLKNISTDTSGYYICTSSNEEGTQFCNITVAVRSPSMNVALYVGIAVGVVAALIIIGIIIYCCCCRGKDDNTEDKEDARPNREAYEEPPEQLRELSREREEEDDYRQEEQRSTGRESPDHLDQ
A33 in human colon and human colon adenocarcinoma tissue sections, sequence (Q99795 22-319): as above

Row | Binder | binding result [1] | binding result [2] | binding result [3]
1 | B1 | binds | binds | –
2 | B2 | – | – | binds
3 | B3 | – | – | binds
